Experimental data published in patent US20090175866A1, “TREATMENT OF B-CELL MALIGNANCIES” (priority 2004, published 2009).

How the values were obtained:
ERK1/2 phosphorylation = assay: FGF-induced ERK phosphorylation in primary myeloma cells (flow cytometry); type: cell-based, human; details: 5 μg/ml, 2 h pre-incubation
Protocol: FIGS. 6 A-B are flow cytometry charts of human primary myeloma cells treated with anti-FGFR antibody PRO-001. A: Freshly isolated BMSCs were stained with PRO-001 (black line) or control antibody (grey line) and then stained with PE-conjugated anti-human secondary antibody. B: Primary myeloma cells were incubated in the absence (filled) or presence of FGF (light line) or pre-incubated with 5 μg/ml PRO-001 (dark line) for 2 h and then stimulated with FGF. ERK1/2 phosphorylation was assessed by flow cytometry analysis.
Determination of ERK1/2 phosphorylation by flow cytometry has been described previously (Chow S, et al., Cytometry 2001; 46:72-78). Cells were serum-starved overnight and then stimulated with 30 ng/ml of aFGF and 10 μg/ml heparin for 10 minutes at 37° C. The cells were immediately fixed by adding 10% formaldehyde directly into the culture medium to obtain a final concentration of 2%. Cells were incubated in fixative for 10 min at 37° C. then on ice for an additional 2 minutes. The cells were permeabilized by adding ice-cold methanol (to a final concentration of 90%) while vortexing and incubated on ice for 30 minutes. […] Flow cytometry was performed on a FACSCaliber® flow cytometer (BD Biosciences, San Jose, Calif.) and analyzed using Cellquest® software (Becton Dickinson). […]

FGFR3 = FGFR3 (Homo sapiens, UniProt P22607); assay: FGFR3 domain specificity of binding
Sequence of FGFR3 (P22607 23-806): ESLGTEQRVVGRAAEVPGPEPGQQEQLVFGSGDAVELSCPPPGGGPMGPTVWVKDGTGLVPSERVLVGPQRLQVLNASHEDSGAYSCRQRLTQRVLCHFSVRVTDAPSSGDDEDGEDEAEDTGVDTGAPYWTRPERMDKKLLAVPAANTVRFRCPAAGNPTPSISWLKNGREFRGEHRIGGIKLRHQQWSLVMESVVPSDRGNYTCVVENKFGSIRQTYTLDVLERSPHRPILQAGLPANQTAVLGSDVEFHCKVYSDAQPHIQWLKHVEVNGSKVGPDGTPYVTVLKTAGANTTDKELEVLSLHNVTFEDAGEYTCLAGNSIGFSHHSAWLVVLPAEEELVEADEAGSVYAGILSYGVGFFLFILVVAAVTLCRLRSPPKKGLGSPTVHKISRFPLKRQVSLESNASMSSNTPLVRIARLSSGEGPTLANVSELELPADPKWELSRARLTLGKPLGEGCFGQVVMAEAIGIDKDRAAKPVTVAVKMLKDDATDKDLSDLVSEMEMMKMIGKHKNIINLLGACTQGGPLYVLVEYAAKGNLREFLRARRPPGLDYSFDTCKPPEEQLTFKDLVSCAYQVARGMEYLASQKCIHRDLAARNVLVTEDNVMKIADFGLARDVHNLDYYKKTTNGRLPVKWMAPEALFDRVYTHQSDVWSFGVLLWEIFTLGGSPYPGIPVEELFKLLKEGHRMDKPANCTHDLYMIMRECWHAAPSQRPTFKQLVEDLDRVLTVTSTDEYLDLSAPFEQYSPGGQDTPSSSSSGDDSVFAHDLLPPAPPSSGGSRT

FGFR3^S249C = biological target: T1, FGFR3^S249C (Homo sapiens, UniProt P22607, S249C); assay: FGF-independent proliferation of FDCP-FGFR3^S249C cells in vitro (XTT); type: cell-based; details: two days
T1 construct: was transfected with full length FGFR1 (FDCP-FGFR1), FGFR2 (FDCP-FGFR2), FGFR3 (FDCP-FGFR3) or FGFR3^S249C mutant cDNAs; expressed in transfected cells; host or cells: FDCP-1 mouse myeloid progenitor cell line
T1 sequence (P22607 23-806 S249C): as the sequence (P22607 23-806) above, with S227C counted along it
Protocol: FIG. 8A is a graph showing viability of FDCP-FGFR3^S249C. Cells were cultured in the presence of increasing amounts of PRO-001 or a control antibody (C) for two days. Cell proliferation was determined by XTT analysis. Data are the average of duplicate cultures.
Non-transformed rat chondrocyte cell line expressing PGFR3 in an inducible manner (RCJ-FGFR3) has been described previously (Rauchenberger R. et al. J. Biol. Chem. 2003; 278:38194-205). Cells were maintained in α-Minimum Essential Media supplemented with 15% fetal calf serum (FCS), 2 mM L-Glutamine, 100 U/ml penicillin, 100 μg/ml streptomycin, 600 μg/ml G418 (Gibco BRL, Ontario, Canada), 2 μg/ml Tetracyclin (Sigma, Ontario, Canada), and 50 μg/ml HygromycinB (Gibco BRL). […]
Cell viability was assessed by 3-(4,5-dimethylthiazol)-2,5-diphenyl tetrazolium (MTT) or (2,3-bis(2-methoxy-4-nitro-5-sulphophenyl)-5-[(phenylamino) carbonyl]-2H-tetrazolium hydroxide (XTT) dye absorbance where indicated. Cells were seeded in 96-well plates at a density of 20,000 (FDCP-1 cells), 5,000 (B9 cells) or 25,000 cells (MM cell lines) per well in culture medium. Cells were incubated in the absence or presence of one of the following cytokines: 10 ng/ml FGF9 and 5 μg/ml heparin, 1% murine IL-6, 50 ng/ml IGF-1 or 50 ng/ml human IL-6 where indicated and increasing concentrations of PRO-001, control antibody (purified human Fab) or 100 nM PD173074. […]

B1: PRO-001: human anti-FGFR3 Fab from HuCAL library; VH-CDR3 SEQ ID NO:1, VL-CDR3 SEQ ID NO:10; VH SEQ ID NO:19, VL SEQ ID NO:28 (antibody, V domains shown)
VH: QVQLQQSGPGLVKPSQTLSLTCAISGDSVSSNSAAWNWIRQSPGRGLEWLGRTYYRSKWYNDYAVSVKSRITINPDTSKNQFSLQLNSVTPEDTAVYYCARSYYPDFDYWGQGTLVTVSS
VL: DIELTQPPSVSVAPGQTARISCSGDALGDKYASWYQQKPGQAPVLVIYDDSDRPSGIPERFSGSNSGNTATLTISGTQAEDEADYYCQSYDGPDLWVFGGGTKLTVLGQ
ERK1/2 phosphorylation
  FGF-induced ERK phosphorylation in primary myeloma cells: blocked FGF-induced ERK phosphorylation
FGFR3
  FGFR3 Domain Specificity: 2
FGFR3^S249C
  FGF-independent proliferation of FDCP-FGFR3^S249C in vitro: efficiently blocked
